Like-named read-outs stand apart in the source and are kept apart here.
Key:
[1] = biological target: T1, integrin αvβ5 expressed on CHO cells (UniProt P06756 31-1048; P18084 24-799, limits assumed); experiment: cell-based or functional assay
[2] = biological target: T2, integrin αvβ6 expressed on CHO cells (UniProt P06756 31-1048; P18564 22-788, limits assumed); experiment: cell-based or functional assay
[3] = biological target: T3, integrin αvβ8 expressed on CHO cells (UniProt P06756 31-1048; P26012 43-769, limits assumed); experiment: cell-based or functional assay
[4] = biological target: T4, integrin αvβ3 expressed on CHO cells (UniProt P06756 31-1048; P05106 27-788, limits assumed); experiment: cell-based or functional assay
[5] = biological target: T5, integrin αvβ1 expressed on CHO cells (UniProt P06756 31-1048; P05556 21-798, limits assumed); experiment: cell-based or functional assay
[6] = biological target: T4, integrin αvβ3 expressed on CHO cells; experiment: flow cytometry titration on AvB3 CHO cells
Protocol: (§1) Adherent cells were brought into suspension using PBS supplemented with 10 mM ethylenediaminetetraacetic acid (EDTA). The cells were washed with PBS, resuspended in PBS supplemented with 1% BSA, and incubated for 15 minutes at 4° C. The cells were labelled with 50 μl of Fab-phage culture supernatant, or 500 nM Fab, or IgG for 30 minutes at 4° C., then washed with PBS and resuspended in PBS supplemented with 1% BSA. Next, the cells were labelled with anti-Fab (for Fab-phage), or anti-Flag (for Fabs) or anti-Fc (for IgGs) conjugated Alexa-488 secondary Ab according to manufacturer's instructions. Data were collected using a CytoFLEX-S flow-cytometer using a 488-nm laser with 530/25 nm filter settings. The cells were analyzed in PBS, and all acquired live events were greater than 10,000 cells per sample. Quantitation analysis was carried out using FlowJo v10.2 Software. For Ab cellular titration analysis, the Abs were added to antigen positive cells in duplicate samples from a range of 500 pM to 1 μM. The mean fluorescence signal values were subtracted from the control antigen negative cells signals, and EC50 determined using Graph-pad Prism, where x is the Fab concentration: […]

[7] = biological target: T1, integrin αvβ5 expressed on CHO cells; experiment: flow cytometry titration on AvB5 CHO cells
Protocol: as §1

[8] = biological target: T5, integrin αvβ1 expressed on CHO cells; experiment: flow cytometry titration on AvB1 CHO cells
Protocol: as §1

[9] = biological target: T3, integrin αvβ8 expressed on CHO cells; experiment: flow cytometry titration on AvB8 CHO cells
Protocol: as §1

[10] = biological target: T2, integrin αvβ6 expressed on CHO cells; experiment: flow cytometry titration on AvB6 CHO cells
Protocol: as §1

[11] = biological target: T6, recombinant human integrin-αvβ1 (human, UniProt P06756 31-992; P05556 21-728, limits assumed); experiment: IgG titration on recombinant human integrin αvβ1, one site-total fit; assay format not stated; set-up: Bmax: unit not given here
T6 construct: also called Recombinant Human Integrins

[12] = biological target: T1, integrin αvβ5 expressed on CHO cells; experiment: flow cytometry titration on integrin-expressing CHO cells
Protocol: as §1

[13] = biological target: T2, integrin αvβ6 expressed on CHO cells; experiment: as above
Protocol: as §1

[14] = biological target: T3, integrin αvβ8 expressed on CHO cells; experiment: as above
Protocol: as §1

[15] = biological target: T4, integrin αvβ3 expressed on CHO cells; experiment: as above
Protocol: as §1

[16] = biological target: T5, integrin αvβ1 expressed on CHO cells; experiment: as above
Protocol: as §1

[17] = biological target: T4, integrin αvβ3 expressed on CHO cells; experiment: cell-based or functional assay; remark: listed apart in the source
[18] = biological target: T5, integrin αvβ1 expressed on CHO cells; experiment: cell-based or functional assay; remark: listed apart in the source
[19] = biological target: T7, recombinant mouse integrin-αvβ1 (mouse, UniProt P43406 31-988; P09055 21-728, limits assumed); experiment: IgG titration on recombinant mouse integrin αvβ1, one site-total fit; assay format not stated
T7 construct: also called Recombinant Mouse Integrins

[20] = biological target: T5, integrin αvβ1 expressed on CHO cells; experiment: cell-based or functional assay; remark: listed apart in the source

T7 sequence (P43406 31-988 limits assumed, chain 1 of 2): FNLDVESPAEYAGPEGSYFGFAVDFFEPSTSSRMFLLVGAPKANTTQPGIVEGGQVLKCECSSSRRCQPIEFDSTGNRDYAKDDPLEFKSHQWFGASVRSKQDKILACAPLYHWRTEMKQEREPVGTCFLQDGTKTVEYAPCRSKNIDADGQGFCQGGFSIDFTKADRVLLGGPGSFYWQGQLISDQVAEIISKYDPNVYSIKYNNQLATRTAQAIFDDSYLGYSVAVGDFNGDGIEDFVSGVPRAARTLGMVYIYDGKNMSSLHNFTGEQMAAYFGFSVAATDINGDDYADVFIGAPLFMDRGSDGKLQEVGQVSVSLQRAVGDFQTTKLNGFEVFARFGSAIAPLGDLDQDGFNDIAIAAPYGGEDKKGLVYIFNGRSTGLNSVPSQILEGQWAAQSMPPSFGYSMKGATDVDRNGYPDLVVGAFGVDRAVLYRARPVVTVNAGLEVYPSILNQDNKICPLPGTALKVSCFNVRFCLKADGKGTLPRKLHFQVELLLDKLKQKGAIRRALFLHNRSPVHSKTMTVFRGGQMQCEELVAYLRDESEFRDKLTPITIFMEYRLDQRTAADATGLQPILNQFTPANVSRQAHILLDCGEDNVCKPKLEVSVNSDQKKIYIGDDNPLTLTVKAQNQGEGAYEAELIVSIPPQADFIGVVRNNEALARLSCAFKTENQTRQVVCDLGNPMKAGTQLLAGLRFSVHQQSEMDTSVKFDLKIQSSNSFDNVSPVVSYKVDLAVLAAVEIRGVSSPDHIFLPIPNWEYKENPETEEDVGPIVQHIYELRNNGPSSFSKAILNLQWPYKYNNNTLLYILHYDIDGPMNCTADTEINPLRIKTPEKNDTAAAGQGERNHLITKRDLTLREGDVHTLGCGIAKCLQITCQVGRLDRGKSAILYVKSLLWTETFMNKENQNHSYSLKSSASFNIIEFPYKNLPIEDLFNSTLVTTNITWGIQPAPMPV
T7 sequence (P09055 21-728 limits assumed, chain 2 of 2): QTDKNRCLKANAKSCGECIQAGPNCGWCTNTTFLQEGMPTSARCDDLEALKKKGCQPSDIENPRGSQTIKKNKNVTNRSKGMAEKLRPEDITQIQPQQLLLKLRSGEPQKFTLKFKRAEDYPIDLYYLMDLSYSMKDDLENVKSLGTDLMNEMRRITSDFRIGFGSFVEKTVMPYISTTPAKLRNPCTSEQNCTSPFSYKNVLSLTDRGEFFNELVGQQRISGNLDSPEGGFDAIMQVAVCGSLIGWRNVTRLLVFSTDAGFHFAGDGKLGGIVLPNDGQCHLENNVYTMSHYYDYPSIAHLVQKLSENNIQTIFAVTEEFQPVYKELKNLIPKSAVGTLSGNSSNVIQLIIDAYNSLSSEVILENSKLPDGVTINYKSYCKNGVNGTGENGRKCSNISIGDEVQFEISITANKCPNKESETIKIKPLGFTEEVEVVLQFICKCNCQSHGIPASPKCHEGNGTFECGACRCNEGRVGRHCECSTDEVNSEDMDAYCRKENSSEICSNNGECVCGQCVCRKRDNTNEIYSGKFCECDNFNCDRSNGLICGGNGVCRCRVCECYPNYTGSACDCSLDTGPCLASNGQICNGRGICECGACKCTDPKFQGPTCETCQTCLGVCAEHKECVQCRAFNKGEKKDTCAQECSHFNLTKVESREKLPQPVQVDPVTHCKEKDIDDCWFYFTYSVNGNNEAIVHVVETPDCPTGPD
T6 sequence (P06756 31-992 limits assumed, chain 1 of 2): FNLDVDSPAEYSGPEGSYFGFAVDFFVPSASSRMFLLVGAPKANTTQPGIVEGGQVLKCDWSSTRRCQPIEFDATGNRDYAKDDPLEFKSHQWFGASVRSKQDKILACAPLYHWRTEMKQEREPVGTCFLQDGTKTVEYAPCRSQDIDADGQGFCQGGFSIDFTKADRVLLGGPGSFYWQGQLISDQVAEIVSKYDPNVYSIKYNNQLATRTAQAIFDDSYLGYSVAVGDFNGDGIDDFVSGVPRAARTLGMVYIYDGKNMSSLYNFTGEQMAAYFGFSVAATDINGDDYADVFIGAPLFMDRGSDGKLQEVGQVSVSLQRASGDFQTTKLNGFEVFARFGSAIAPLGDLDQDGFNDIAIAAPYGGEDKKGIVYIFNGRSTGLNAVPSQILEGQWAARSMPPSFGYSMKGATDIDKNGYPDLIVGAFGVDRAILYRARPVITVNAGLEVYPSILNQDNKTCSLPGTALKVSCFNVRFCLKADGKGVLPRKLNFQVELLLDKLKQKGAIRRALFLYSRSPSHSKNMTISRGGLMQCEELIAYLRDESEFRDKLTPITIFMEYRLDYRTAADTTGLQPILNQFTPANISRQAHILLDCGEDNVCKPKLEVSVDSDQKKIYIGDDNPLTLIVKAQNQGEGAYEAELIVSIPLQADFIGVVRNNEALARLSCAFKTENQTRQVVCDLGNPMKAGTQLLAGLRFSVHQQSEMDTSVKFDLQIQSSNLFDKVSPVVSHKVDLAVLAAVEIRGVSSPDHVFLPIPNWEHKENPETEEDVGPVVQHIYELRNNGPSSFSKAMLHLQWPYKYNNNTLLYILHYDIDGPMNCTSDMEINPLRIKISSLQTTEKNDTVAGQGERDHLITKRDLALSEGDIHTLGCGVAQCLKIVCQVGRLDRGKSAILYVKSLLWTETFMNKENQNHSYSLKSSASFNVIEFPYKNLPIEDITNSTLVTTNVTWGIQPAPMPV
T6 sequence (P05556 21-728 limits assumed, chain 2 of 2): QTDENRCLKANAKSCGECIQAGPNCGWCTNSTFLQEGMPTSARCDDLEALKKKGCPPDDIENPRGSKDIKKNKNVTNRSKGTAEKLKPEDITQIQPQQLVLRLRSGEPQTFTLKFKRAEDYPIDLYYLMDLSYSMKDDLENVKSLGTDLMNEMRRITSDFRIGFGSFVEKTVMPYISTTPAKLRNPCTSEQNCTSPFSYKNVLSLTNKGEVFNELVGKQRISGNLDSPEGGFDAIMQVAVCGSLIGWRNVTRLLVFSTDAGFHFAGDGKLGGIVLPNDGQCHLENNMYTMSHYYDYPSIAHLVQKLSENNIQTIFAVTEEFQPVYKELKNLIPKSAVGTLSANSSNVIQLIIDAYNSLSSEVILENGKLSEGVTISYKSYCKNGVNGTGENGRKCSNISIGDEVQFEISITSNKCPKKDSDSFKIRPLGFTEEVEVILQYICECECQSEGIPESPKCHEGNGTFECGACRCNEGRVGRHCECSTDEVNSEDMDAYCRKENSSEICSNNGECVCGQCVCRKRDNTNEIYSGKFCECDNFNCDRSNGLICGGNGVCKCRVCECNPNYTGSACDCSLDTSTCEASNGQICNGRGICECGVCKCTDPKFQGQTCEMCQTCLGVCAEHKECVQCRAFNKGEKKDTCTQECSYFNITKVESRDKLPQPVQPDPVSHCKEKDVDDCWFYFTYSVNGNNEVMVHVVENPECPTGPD
T3 sequence (P06756 31-1048 limits assumed, chain 1 of 2): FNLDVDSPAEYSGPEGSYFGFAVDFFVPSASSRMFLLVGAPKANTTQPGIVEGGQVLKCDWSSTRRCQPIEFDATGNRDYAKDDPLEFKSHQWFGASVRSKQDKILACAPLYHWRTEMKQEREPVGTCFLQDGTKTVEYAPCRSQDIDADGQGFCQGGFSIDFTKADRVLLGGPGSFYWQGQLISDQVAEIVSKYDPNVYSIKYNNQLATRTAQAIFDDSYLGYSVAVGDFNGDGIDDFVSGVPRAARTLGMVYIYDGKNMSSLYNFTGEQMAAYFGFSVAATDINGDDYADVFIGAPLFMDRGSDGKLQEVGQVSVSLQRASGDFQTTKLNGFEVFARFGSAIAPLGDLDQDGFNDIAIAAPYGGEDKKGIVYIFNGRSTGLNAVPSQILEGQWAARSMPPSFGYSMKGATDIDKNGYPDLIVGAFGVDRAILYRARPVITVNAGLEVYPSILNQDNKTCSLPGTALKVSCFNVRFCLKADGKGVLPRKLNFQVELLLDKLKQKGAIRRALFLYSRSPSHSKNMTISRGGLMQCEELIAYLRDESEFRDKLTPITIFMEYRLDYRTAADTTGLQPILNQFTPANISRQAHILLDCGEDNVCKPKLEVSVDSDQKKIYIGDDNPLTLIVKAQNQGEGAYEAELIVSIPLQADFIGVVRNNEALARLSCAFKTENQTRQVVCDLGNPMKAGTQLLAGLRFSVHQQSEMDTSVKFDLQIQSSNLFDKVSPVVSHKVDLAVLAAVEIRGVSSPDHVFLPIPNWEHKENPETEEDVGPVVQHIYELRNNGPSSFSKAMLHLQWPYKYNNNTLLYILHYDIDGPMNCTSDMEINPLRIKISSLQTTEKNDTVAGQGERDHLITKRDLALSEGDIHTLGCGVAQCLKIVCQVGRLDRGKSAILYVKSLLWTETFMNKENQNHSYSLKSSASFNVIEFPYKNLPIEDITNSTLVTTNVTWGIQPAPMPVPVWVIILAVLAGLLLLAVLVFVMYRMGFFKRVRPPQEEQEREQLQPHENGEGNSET
T3 sequence (P26012 43-769 limits assumed, chain 2 of 2): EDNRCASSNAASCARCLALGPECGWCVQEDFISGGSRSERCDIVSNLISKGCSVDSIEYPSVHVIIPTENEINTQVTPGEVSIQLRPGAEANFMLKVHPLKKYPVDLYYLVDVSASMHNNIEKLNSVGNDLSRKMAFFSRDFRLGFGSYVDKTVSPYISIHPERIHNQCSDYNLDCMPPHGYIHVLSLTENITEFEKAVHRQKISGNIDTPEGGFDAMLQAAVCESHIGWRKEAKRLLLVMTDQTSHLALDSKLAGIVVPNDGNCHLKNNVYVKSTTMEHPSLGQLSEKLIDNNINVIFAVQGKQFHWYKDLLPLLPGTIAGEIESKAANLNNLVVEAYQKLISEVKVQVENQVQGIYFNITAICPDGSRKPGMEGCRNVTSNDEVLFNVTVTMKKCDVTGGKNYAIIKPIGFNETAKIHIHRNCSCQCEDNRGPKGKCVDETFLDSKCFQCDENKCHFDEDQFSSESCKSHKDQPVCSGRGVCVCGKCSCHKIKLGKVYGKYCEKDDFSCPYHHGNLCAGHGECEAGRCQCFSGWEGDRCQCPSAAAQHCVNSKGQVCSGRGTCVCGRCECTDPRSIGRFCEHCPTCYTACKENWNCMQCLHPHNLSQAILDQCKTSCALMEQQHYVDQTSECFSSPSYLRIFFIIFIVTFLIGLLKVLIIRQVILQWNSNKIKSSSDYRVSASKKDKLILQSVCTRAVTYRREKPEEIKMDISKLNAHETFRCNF

| Binder | IC50, inhibition of CHO cell adhesion to LAP-TGFβ [1] [nM] | IC50, inhibition of CHO cell adhesion to LAP-TGFβ [2] [nM] | IC50, inhibition of CHO cell adhesion to LAP-TGFβ [3] [nM] | IC50, inhibition of CHO cell adhesion to LAP-TGFβ [4] [nM] | IC50, inhibition of CHO cell adhesion to LAP-TGFβ [5] [nM] | EC50 [6] [nM] | EC50 [7] [nM] | EC50 [8] [nM] | EC50 [9] [nM] | EC50 [10] [nM] | Bmax [11] | Kd [11] [nM] | Bmax [19] | Kd [19] [nM] | other results |
| --- | --- | --- | --- | --- | --- | --- | --- | --- | --- | --- | --- | --- | --- | --- | --- |
| Bi-IgG 11867/10392 (bispecific antibody) heavy chain 10392, knob: EVQLVESGGGLVQPGGSLRLSCAASGFNIYYSSIHWVRQAPGKGLEWVASISSSSGSTSYADSVKGRFTISADTSKNTAYLQMNSLRAEDTAVYYCARSYYGGGYPYALDYWGQGTLVTVSSASTKGPSVFPLAPSSKSTSGGTAALGCLVKDYFPEPVTVSWNSGALTSGVHTFPAVLQSSGLYSLSSVVTVPSSSLGTQTYICNVNHKPSNTKVDKKVEPKSCDKTHTCPPCPAPELLGGPSVFLFPPKPKDTLMISRTPEVTCVVVDVSHEDPEVKFNWYVDGVEVHNAKTKPREEQYNSTYRVVSVLTVLHQDWLNGKEYKCKVSNKALPAPIEKTISKAKGQPREPMVFDLPPSREEMTKNQVSLWCMVKGFYPSDIAVEWESNGQPENNYKTTPPVLDSDGSFFLYSKLTVDKSRWQQGNVFSCSVMHEALHNHYTQKSLSLSPGK heavy chain 11867, hole: EVQLVESGGGLVQPGGSLRLSCAASGFDFDSYAIHWVRQAPGKGLEWVAYFYPGHDYSTYADSVKGRFTISADTSKNTAYLQMNSLRAEDTAVYYCARPSPYFSWHQAMDYWGQGTLVTVSSASTKGPSVFPLAPSSKSTSGGTAALGCLVKDYFPEPVTVSWNSGALTSGVHTFPAVLQSSGLYSLSSVVTVPSSSLGTQTYICNVNHKPSNTKVDKKVEPKSCDKTHTCPPCPAPELLGGPSVFLFPPKPKDTLMISRTPEVTCVVVDVSHEDPEVKFNWYVDGVEVHNAKTKPREEQYNSTYRVVSVLTVLHQDWLNGKEYKCKVSNKALPAPIEKTISKAKGQPREPQVYTLPPIRELMTSNQVSLSCAVKGFYPSDIAVEWESNGQPENNYKTTPPVLDSDGSFFLVSKLTVDKSRWQQGNVFSCSVMHEALHNHYTQKSLSLSPGK light chain 11867: DIQMTQSPSSLSASVGDRVTITCRASQSVSSAVAWYQQKPGKAPKLLIYSASSLYSGVPSRFSGSRSGTDFTLTISSLQPEDFATYYCQQATGSEVTFGQGTKVEIKRTVAAPSVFIFPPSDEQLKSGTASVVCLLNNFYPREAKVQWKVDNALQSGNSQESVTEQDSKDSTYSLSSTLTLSKADYEKHKVYACEVTHQGLSSPVTKSFNRGEC | 4.1 | 6.1 | 2.5 | 7.5 | 3.2 | 15.9 | 1.2 | 2.4 | 6.4 | 2.5 | – | – | – | – | – |
| IgG clone 10392, hG1/hk (pSCSTa-hG1 (10392) heavy chain, pSCSTa-hK (10392) light chain) (antibody, V domains shown, Full-length human IgG1/kappa made in Expi293 cells) VH: EVQLVESGGGLVQPGGSLRLSCAASGFNIYYSSIHWVRQAPGKGLEWVASISSSSGSTSTYADSVKGRFTISADTSKNTAYLQMNSLRAEDTAVYYCARSYYGGGYPYALDYWGQGTLVTVSS VL: DIQMTQSPSSLSASVGDRVTITCRASQSVSSAVAWYQQKPGKAPKLLIYSASSLYSGVPSRFSGSRSGTDFTLTISSLQPEDFATYYCQQYFGGLITFGQGTKVEIKR | 0.7 | 1.4 | 1.3 | 1.2 | 5 | 9.9 | 1.3 | 3 | 11.6 | 3.7 | 0.412 | 0.421 | 0.412 | 0.421 | EC50 [12]: 3.4 nM; EC50 [13]: 3.26 nM; EC50 [14]: 11.4 nM; EC50 [15]: 14.8 nM; EC50 [16]: 2.72 nM; IC50, inhibition of CHO cell adhesion to LAP-TGFβ [17]: 45 nM; IC50, inhibition of CHO cell adhesion to LAP-TGFβ [18]: < 1 nM; adhesion of integrin-αvβ1 CHO cells to LAP-TGFβ, normalised confluence, number over the bar, untreated = 100 [20]: 61.2% |
| 10392 hG1 LALA PG/hk (antibody, human IgG1, V domains shown, not shown: human IgG1 constant region with 'LALA PG' changes) VH: EVQLVESGGGLVQPGGSLRLSCAASGFNIYYSSIHWVRQAPGKGLEWVASISSSSGSTSTYADSVKGRFTISADTSKNTAYLQMNSLRAEDTAVYYCARSYYGGGYPYALDYWGQGTLVTVSS VL: DIQMTQSPSSLSASVGDRVTITCRASQSVSSAVAWYQQKPGKAPKLLIYSASSLYSGVPSRFSGSRSGTDFTLTISSLQPEDFATYYCQQYFGGLITFGQGTKVEIKR | – | – | – | – | – | – | – | – | – | – | 0.555 | 0.411 | 0.555 | 0.411 | – |
| 10404 hG1 LALA PG/hk (antibody, V domains shown, not shown: human IgG1 constant region with 'LALA PG' changes) VH: EVQLVESGGGLVQPGGSLRLSCAASGFNLYSSSIHWVRQAPGKGLEWVAYIYPSYGYTSTYADSVKGRFTISADTSKNTAYLQMNSLRAEDTAVYYCARPAPYYSWYPAMDYWGQGTLVTVSS VL: DIQMTQSPSSLSASVGDRVTITCRASQSVSSAVAWYQQKPGKAPKLLIYSASSLYSGVPSRFSGSRSGTDFTLTISSLQPEDFATYYCQQASGSPFTFGQGTKVEIKR | – | – | – | – | – | – | – | – | – | – | 1.09 | 0.244 | 1.09 | 0.244 | – |
| 10404 hG4/hk (antibody, V domains shown, the IgG4 constant region used is not specified; not shown: human IgG4 constant region ('hG4')) VH: EVQLVESGGGLVQPGGSLRLSCAASGFNLYSSSIHWVRQAPGKGLEWVAYIYPSYGYTSTYADSVKGRFTISADTSKNTAYLQMNSLRAEDTAVYYCARPAPYYSWYPAMDYWGQGTLVTVSS VL: DIQMTQSPSSLSASVGDRVTITCRASQSVSSAVAWYQQKPGKAPKLLIYSASSLYSGVPSRFSGSRSGTDFTLTISSLQPEDFATYYCQQASGSPFTFGQGTKVEIKR | – | – | – | – | – | – | – | – | – | – | 0.782 | 0.358 | 0.782 | 0.358 | – |
| 10392 hG4/hk (antibody, human IgG4, V domains shown, not shown: human IgG4 constant region ('hG4')) VH: EVQLVESGGGLVQPGGSLRLSCAASGFNIYYSSIHWVRQAPGKGLEWVASISSSSGSTSTYADSVKGRFTISADTSKNTAYLQMNSLRAEDTAVYYCARSYYGGGYPYALDYWGQGTLVTVSS VL: DIQMTQSPSSLSASVGDRVTITCRASQSVSSAVAWYQQKPGKAPKLLIYSASSLYSGVPSRFSGSRSGTDFTLTISSLQPEDFATYYCQQYFGGLITFGQGTKVEIKR | – | – | – | – | – | – | – | – | – | – | 0.85 | 0.842 | 0.85 | 0.842 | – |
